Experimental data: patent US20210347873A1 (SHANGHAI PHARMAEXPLORER, published 2021)

What was measured:
human APRIL protein [1] = molecular target: T1, human APRIL protein (human, UniProt O75888 105-250, limits assumed); test: ELISA, coated APRIL; antibody 13.3 nM
T1 construct: Bought protein; also called recombinant APRIL protein
T1 sequence (looked up): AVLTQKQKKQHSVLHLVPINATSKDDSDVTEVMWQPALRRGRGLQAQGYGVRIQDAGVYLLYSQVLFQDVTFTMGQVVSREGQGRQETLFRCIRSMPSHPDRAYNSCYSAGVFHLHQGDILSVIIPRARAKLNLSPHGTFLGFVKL
In short: (§1)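 Anti-BLyS antibodies were tested for cross-reactivity on human APRIL coated at 1.0 μg/mL in PBS overnight at 4 °C, blocked with PBS/0.05% Tween20/1% BSA at 37 °C for 2 h. Antibodies were incubated 1 h at 37 °C, then HRP secondary 1 h at 37 °C; TMB 5 min at RT, HCl stop, A450 read.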

human APRIL protein [2] = molecular target: T1, human APRIL protein; test: ELISA, coated APRIL; antibody 0.00427 nM
In short: as §1

human APRIL protein [3] = molecular target: T1, human APRIL protein; test: ELISA, coated APRIL; antibody 66.7 nM
In short: as §1

human APRIL protein [4] = molecular target: T1, human APRIL protein; test: ELISA, coated APRIL; antibody 2.67 nM
In short: as §1

human APRIL protein [5] = molecular target: T1, human APRIL protein; test: ELISA, coated APRIL; antibody 0.534 nM
In short: as §1

human APRIL protein [6] = molecular target: T1, human APRIL protein; test: ELISA, coated APRIL; antibody 0.0213 nM
In short: as §1

human APRIL protein [7] = molecular target: T1, human APRIL protein; test: ELISA, coated APRIL; antibody 0.107 nM
In short: as §1

human APRIL protein [8] = molecular target: T1, human APRIL protein; test: ELISA, coated APRIL
Protocol: To test whether the BLyS antibody cross-reacted with human APRIL protein, APRIL protein (purchased from R & D Systems) was first diluted to a final concentration of 1.0 μg/mL with PBS, and then 50 μL of which per well was aliquoted into a 96-well ELISA plate, and the plate was subsequently sealed with plastic film and incubated at 4° C. overnight. On the next day the plate was rinsed four times with the plate washing buffer [PBS buffer containing 0.0500 (v/v) Tween20] and a blocking solution [PBS buffer containing 0.05 (v/v) Tween20 and 1 (w/w) BSA] was added, then the protein was blocked at 37° C. for 2 hours. The blocking solution was removed and 100 μL per well of the lead antibodies prepared in Embodiment 1 and 2 were added in. After incubation for 1 hour at 37° C., the plate was rinsed four times with the plate washing buffer [PBS buffer containing 0.05 (v/v) Tween20]. HRP-labeled (horseradish peroxidase) secondary antibody (purchased from Sigma) was added in and incubated at 37° C. for 1 hour. The plate was then rinsed four times with the plate washing buffer [PBS buffer containing 0.050 (v/v) Tween20]. […] A₄₅₀ₙₘ values were read via an ELISA plate reader (SpectraMax M5e purchased from Molecular Devices) and the results were shown in FIGS. 6A-6B and Table 11. […]

human APRIL protein [9] = molecular target: T1, human APRIL protein; test: ELISA, coated APRIL; antibody 0 nM (blank)
In short: as §1

B1: 67A2E1D10 (antibody, V domains shown)
VH: EVQLQQSGAELVKPGASVKLSCTASGFNIKNYYMHWVKQRTEEGLEWIGRIDPEDGETKYAPKFQAKATITADTSSNTAYLQLSSLTSEDTAVYFCARKGYYGNYGAWFAYWGQGTLVTVSA
VL: DIQMTQSPASLSVSVGETVTITCRASEDLYSNLAWYQQKQGKSPQLLVYAATFLADGVPSRFSGSGSGTQYSLKINSLQSEDFGNYYCQHFWGTPPTFGGGTKLEIK
notes: Mouse hybridoma antibody purified on Protein G
- OD450 nm (human APRIL protein [1]): 0.0898
- OD450 nm (human APRIL protein [2]): 0.0553
- OD450 nm (human APRIL protein [3]): 0.264
- OD450 nm (human APRIL protein [4]): 0.0673
- OD450 nm (human APRIL protein [5]): 0.058
- OD450 nm (human APRIL protein [6]): 0.0563
- OD450 nm (human APRIL protein [7]): 0.0588
- binding result (human APRIL protein [8]): no binding (tested: 66.7 nM)
- OD450 nm (human APRIL protein [9]): 0.053
